Measured values: patent US20240270846A1 (published 2024)

B1: GLS3000 S56D one-arm antibody (H chain CE115HA000) (antibody, human IgG1, kappa, L234A L235A, N297A, name in Kabat numbering)
heavy: QVQLVESGGGVVQPGRSLRLSCAASGFTFSNAWMHWVRQAPGKGLEWVAQIKAKSNNYATYYAESVKGRFTISRDDSKNSLYLQMNSLKTEDTAVYYCRYVHYGAYYGVDAWGQGTTVTVSSASTKGPSVFPLAPSSKSTSGGTAALGCLVKDYFPEPVTVSWNSGALTSGVHTFPAVLQSSGLYSLSSVVTVPSSSLGTQTYICNVNHKPSNTKVDKKVEPKSCDKTHTCPPCPAPEAAGGPSVFLFPPKPKDTLMISRTPEVTCVVVDVSHEDPEVKFNWYVDGVEVHNAKTKPREEQYASTYRVVSVLTVLHQDWLNGKEYKCKVSNKALPAPIEKTISKAKGQPREPQVYTLPPSRCELTKNQVSLSCAVKGFYPSDIAVEWESNGQPENNYKTTPPVLDSDGSFFLVSKLTVDKSRWQQGNVFSCSVMHEALHNHYTQKSLSLSPDYKDDDDK
chain: EPKSSDKTHTCPPCPAPELLGGPSVFLFPPKPKDTLMISRTPEVTCVVVDVSHEDPEVKFNWYVDGVEVHNAKTKPREEQYNSTYRVVSVLTVLHQDWLNGKEYKCKVSNKALPAPIEKTISKAKGQPREPQVCTLPPSRDELTKNQVSLWCLVKGFYPSDIAVEWESNGQPENNYKTTPPVLDSDGSFFLYSKLTVDKSRWQQGNVFSCSVMHEALHNRYTQKSLSLSP
light: DIVMTQSPLSLPVTPGEPASISCRSSQSLVHSNRNTYLHWYQQKPGQAPRLLIYKVSNRFDGVPDRFSGSGSGTDFTLKISRVEAEDVGVYYCGQGTQVPYTFGQGTKLEIKRTVAAPSVFIFPPSDEQLKSGTASVVCLLNNFYPREAKVQWKVDNALQSGNSQESVTEQDSKDSTYSLSSTLTLSKADYEKHKVYACEVTHQGLSSPVTKSFNRGEC
notes: one-arm antibody
B2: GLS3000 V27cE one-arm antibody (H chain CE115HA000) (antibody, human IgG1, kappa, L234A L235A, N297A, name in Kabat numbering)
heavy: QVQLVESGGGVVQPGRSLRLSCAASGFTFSNAWMHWVRQAPGKGLEWVAQIKAKSNNYATYYAESVKGRFTISRDDSKNSLYLQMNSLKTEDTAVYYCRYVHYGAYYGVDAWGQGTTVTVSSASTKGPSVFPLAPSSKSTSGGTAALGCLVKDYFPEPVTVSWNSGALTSGVHTFPAVLQSSGLYSLSSVVTVPSSSLGTQTYICNVNHKPSNTKVDKKVEPKSCDKTHTCPPCPAPEAAGGPSVFLFPPKPKDTLMISRTPEVTCVVVDVSHEDPEVKFNWYVDGVEVHNAKTKPREEQYASTYRVVSVLTVLHQDWLNGKEYKCKVSNKALPAPIEKTISKAKGQPREPQVYTLPPSRCELTKNQVSLSCAVKGFYPSDIAVEWESNGQPENNYKTTPPVLDSDGSFFLVSKLTVDKSRWQQGNVFSCSVMHEALHNHYTQKSLSLSPDYKDDDDK
chain: EPKSSDKTHTCPPCPAPELLGGPSVFLFPPKPKDTLMISRTPEVTCVVVDVSHEDPEVKFNWYVDGVEVHNAKTKPREEQYNSTYRVVSVLTVLHQDWLNGKEYKCKVSNKALPAPIEKTISKAKGQPREPQVCTLPPSRDELTKNQVSLWCLVKGFYPSDIAVEWESNGQPENNYKTTPPVLDSDGSFFLYSKLTVDKSRWQQGNVFSCSVMHEALHNRYTQKSLSLSP
light: DIVMTQSPLSLPVTPGEPASISCRSSQSLEHSNRNTYLHWYQQKPGQAPRLLIYKVSNRFSGVPDRFSGSGSGTDFTLKISRVEAEDVGVYYCGQGTQVPYTFGQGTKLEIKRTVAAPSVFIFPPSDEQLKSGTASVVCLLNNFYPREAKVQWKVDNALQSGNSQESVTEQDSKDSTYSLSSTLTLSKADYEKHKVYACEVTHQGLSSPVTKSFNRGEC
notes: one-arm antibody
B3: GLS3000 V27cL one-arm antibody (H chain CE115HA000) (antibody, human IgG1, kappa, L234A L235A, N297A, name in Kabat numbering)
heavy: QVQLVESGGGVVQPGRSLRLSCAASGFTFSNAWMHWVRQAPGKGLEWVAQIKAKSNNYATYYAESVKGRFTISRDDSKNSLYLQMNSLKTEDTAVYYCRYVHYGAYYGVDAWGQGTTVTVSSASTKGPSVFPLAPSSKSTSGGTAALGCLVKDYFPEPVTVSWNSGALTSGVHTFPAVLQSSGLYSLSSVVTVPSSSLGTQTYICNVNHKPSNTKVDKKVEPKSCDKTHTCPPCPAPEAAGGPSVFLFPPKPKDTLMISRTPEVTCVVVDVSHEDPEVKFNWYVDGVEVHNAKTKPREEQYASTYRVVSVLTVLHQDWLNGKEYKCKVSNKALPAPIEKTISKAKGQPREPQVYTLPPSRCELTKNQVSLSCAVKGFYPSDIAVEWESNGQPENNYKTTPPVLDSDGSFFLVSKLTVDKSRWQQGNVFSCSVMHEALHNHYTQKSLSLSPDYKDDDDK
chain: EPKSSDKTHTCPPCPAPELLGGPSVFLFPPKPKDTLMISRTPEVTCVVVDVSHEDPEVKFNWYVDGVEVHNAKTKPREEQYNSTYRVVSVLTVLHQDWLNGKEYKCKVSNKALPAPIEKTISKAKGQPREPQVCTLPPSRDELTKNQVSLWCLVKGFYPSDIAVEWESNGQPENNYKTTPPVLDSDGSFFLYSKLTVDKSRWQQGNVFSCSVMHEALHNRYTQKSLSLSP
light: DIVMTQSPLSLPVTPGEPASISCRSSQSLLHSNRNTYLHWYQQKPGQAPRLLIYKVSNRFSGVPDRFSGSGSGTDFTLKISRVEAEDVGVYYCGQGTQVPYTFGQGTKLEIKRTVAAPSVFIFPPSDEQLKSGTASVVCLLNNFYPREAKVQWKVDNALQSGNSQESVTEQDSKDSTYSLSSTLTLSKADYEKHKVYACEVTHQGLSSPVTKSFNRGEC
notes: one-arm antibody
B4: GLS3000 V27cD one-arm antibody (H chain CE115HA000) (antibody, human IgG1, kappa, L234A L235A, N297A, name in Kabat numbering)
heavy: QVQLVESGGGVVQPGRSLRLSCAASGFTFSNAWMHWVRQAPGKGLEWVAQIKAKSNNYATYYAESVKGRFTISRDDSKNSLYLQMNSLKTEDTAVYYCRYVHYGAYYGVDAWGQGTTVTVSSASTKGPSVFPLAPSSKSTSGGTAALGCLVKDYFPEPVTVSWNSGALTSGVHTFPAVLQSSGLYSLSSVVTVPSSSLGTQTYICNVNHKPSNTKVDKKVEPKSCDKTHTCPPCPAPEAAGGPSVFLFPPKPKDTLMISRTPEVTCVVVDVSHEDPEVKFNWYVDGVEVHNAKTKPREEQYASTYRVVSVLTVLHQDWLNGKEYKCKVSNKALPAPIEKTISKAKGQPREPQVYTLPPSRCELTKNQVSLSCAVKGFYPSDIAVEWESNGQPENNYKTTPPVLDSDGSFFLVSKLTVDKSRWQQGNVFSCSVMHEALHNHYTQKSLSLSPDYKDDDDK
chain: EPKSSDKTHTCPPCPAPELLGGPSVFLFPPKPKDTLMISRTPEVTCVVVDVSHEDPEVKFNWYVDGVEVHNAKTKPREEQYNSTYRVVSVLTVLHQDWLNGKEYKCKVSNKALPAPIEKTISKAKGQPREPQVCTLPPSRDELTKNQVSLWCLVKGFYPSDIAVEWESNGQPENNYKTTPPVLDSDGSFFLYSKLTVDKSRWQQGNVFSCSVMHEALHNRYTQKSLSLSP
light: DIVMTQSPLSLPVTPGEPASISCRSSQSLDHSNRNTYLHWYQQKPGQAPRLLIYKVSNRFSGVPDRFSGSGSGTDFTLKISRVEAEDVGVYYCGQGTQVPYTFGQGTKLEIKRTVAAPSVFIFPPSDEQLKSGTASVVCLLNNFYPREAKVQWKVDNALQSGNSQESVTEQDSKDSTYSLSSTLTLSKADYEKHKVYACEVTHQGLSSPVTKSFNRGEC
notes: one-arm antibody
B5: GLS3000 T31D one-arm antibody (H chain CE115HA000) (antibody, human IgG1, kappa, L234A L235A, N297A, name in Kabat numbering)
heavy: QVQLVESGGGVVQPGRSLRLSCAASGFTFSNAWMHWVRQAPGKGLEWVAQIKAKSNNYATYYAESVKGRFTISRDDSKNSLYLQMNSLKTEDTAVYYCRYVHYGAYYGVDAWGQGTTVTVSSASTKGPSVFPLAPSSKSTSGGTAALGCLVKDYFPEPVTVSWNSGALTSGVHTFPAVLQSSGLYSLSSVVTVPSSSLGTQTYICNVNHKPSNTKVDKKVEPKSCDKTHTCPPCPAPEAAGGPSVFLFPPKPKDTLMISRTPEVTCVVVDVSHEDPEVKFNWYVDGVEVHNAKTKPREEQYASTYRVVSVLTVLHQDWLNGKEYKCKVSNKALPAPIEKTISKAKGQPREPQVYTLPPSRCELTKNQVSLSCAVKGFYPSDIAVEWESNGQPENNYKTTPPVLDSDGSFFLVSKLTVDKSRWQQGNVFSCSVMHEALHNHYTQKSLSLSPDYKDDDDK
chain: EPKSSDKTHTCPPCPAPELLGGPSVFLFPPKPKDTLMISRTPEVTCVVVDVSHEDPEVKFNWYVDGVEVHNAKTKPREEQYNSTYRVVSVLTVLHQDWLNGKEYKCKVSNKALPAPIEKTISKAKGQPREPQVCTLPPSRDELTKNQVSLWCLVKGFYPSDIAVEWESNGQPENNYKTTPPVLDSDGSFFLYSKLTVDKSRWQQGNVFSCSVMHEALHNRYTQKSLSLSP
light: DIVMTQSPLSLPVTPGEPASISCRSSQSLVHSNRNDYLHWYQQKPGQAPRLLIYKVSNRFSGVPDRFSGSGSGTDFTLKISRVEAEDVGVYYCGQGTQVPYTFGQGTKLEIKRTVAAPSVFIFPPSDEQLKSGTASVVCLLNNFYPREAKVQWKVDNALQSGNSQESVTEQDSKDSTYSLSSTLTLSKADYEKHKVYACEVTHQGLSSPVTKSFNRGEC
notes: one-arm antibody
B6: GLS3000 V27cI one-arm antibody (H chain CE115HA000) (antibody, human IgG1, kappa, L234A L235A, N297A, name in Kabat numbering)
heavy: QVQLVESGGGVVQPGRSLRLSCAASGFTFSNAWMHWVRQAPGKGLEWVAQIKAKSNNYATYYAESVKGRFTISRDDSKNSLYLQMNSLKTEDTAVYYCRYVHYGAYYGVDAWGQGTTVTVSSASTKGPSVFPLAPSSKSTSGGTAALGCLVKDYFPEPVTVSWNSGALTSGVHTFPAVLQSSGLYSLSSVVTVPSSSLGTQTYICNVNHKPSNTKVDKKVEPKSCDKTHTCPPCPAPEAAGGPSVFLFPPKPKDTLMISRTPEVTCVVVDVSHEDPEVKFNWYVDGVEVHNAKTKPREEQYASTYRVVSVLTVLHQDWLNGKEYKCKVSNKALPAPIEKTISKAKGQPREPQVYTLPPSRCELTKNQVSLSCAVKGFYPSDIAVEWESNGQPENNYKTTPPVLDSDGSFFLVSKLTVDKSRWQQGNVFSCSVMHEALHNHYTQKSLSLSPDYKDDDDK
chain: EPKSSDKTHTCPPCPAPELLGGPSVFLFPPKPKDTLMISRTPEVTCVVVDVSHEDPEVKFNWYVDGVEVHNAKTKPREEQYNSTYRVVSVLTVLHQDWLNGKEYKCKVSNKALPAPIEKTISKAKGQPREPQVCTLPPSRDELTKNQVSLWCLVKGFYPSDIAVEWESNGQPENNYKTTPPVLDSDGSFFLYSKLTVDKSRWQQGNVFSCSVMHEALHNRYTQKSLSLSP
light: DIVMTQSPLSLPVTPGEPASISCRSSQSLIHSNRNTYLHWYQQKPGQAPRLLIYKVSNRFSGVPDRFSGSGSGTDFTLKISRVEAEDVGVYYCGQGTQVPYTFGQGTKLEIKRTVAAPSVFIFPPSDEQLKSGTASVVCLLNNFYPREAKVQWKVDNALQSGNSQESVTEQDSKDSTYSLSSTLTLSKADYEKHKVYACEVTHQGLSSPVTKSFNRGEC
notes: one-arm antibody

Each binder was assayed against T1, CD3 epsilon homodimer protein (UniProt P07766 23-126) (assay: SPR, CD3e homodimer on chip;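 further: surface plasmon resonance at 25 degrees C, antibodies flowed as analyte over CD3 epsilon homodimer amine-coupled to a CM4 chip, running buffer HBS-EP+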).
T1 construct: also called CD3 (CD3 epsilon)
T1 sequence (P07766 23-126): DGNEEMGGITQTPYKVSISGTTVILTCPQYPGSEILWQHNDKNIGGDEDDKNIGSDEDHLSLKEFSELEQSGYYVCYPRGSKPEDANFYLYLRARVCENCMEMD
B1 was tested, and the “ratio of amounts bound (altered form / unaltered GLS3000 antibody)” value was 0.77.
With B2 the “ratio of amounts bound (altered form / unaltered GLS3000 antibody)” value was 0.61.
With B3 the “ratio of amounts bound (altered form / unaltered GLS3000 antibody)” value was 0.84.
In the case of B4, the “ratio of amounts bound (altered form / unaltered GLS3000 antibody)” value is reported as 0.32.
In the case of B5, the “ratio of amounts bound (altered form / unaltered GLS3000 antibody)” value is reported as 0.23.
With B6 the “ratio of amounts bound (altered form / unaltered GLS3000 antibody)” value was 0.96.
